The text below walks through data of US20240158477A1 (BIODURO JIANGSU, published 2024).

What all share (test): cell-based or functional assay
The target of test [1] is SARS-CoV-2 S protein of variant P.1.
For test [2], the target named is SARS-CoV-2 S protein of variant B1.1.7.
In test [3] the target is SARS-CoV-2 S protein of variant B.1.525.
Test [4] concerns the target SARS-CoV-2 S protein of variant B.1.351.

B1: Fc tagged nanobody VHH60 (Fc fusion)
chain: EVQLVESGGGLVQPGGSLRLSCAASGRTFRVNLMGWFRQAPGKGRELVASINGFDDITYYPDSVEGRFTISRDNAKRMVYLQMNSLRAEDTAVYYCAAYDSDYDGRLFNYWGQGTQVTVSSGSGGGGSGGGGS
B1: the “IC50, pseudoviral entry assay (CaCO2 cells)” value in test [1] amounted to 16.3 nM; in test [2] it was 31.8 nM; in test [3], 15 nM; in test [4], 18.3 nM.
